Experimental data published in the nanobody polyreactivity screen of Harvey et al. (2022).

Assay: yeast display, Sf9 membrane polyspecificity reagent, FACS + sequencing; frameworks hold sequencing errors
Outline: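 Synthetic nanobody libraries on Saccharomyces cerevisiae BJ5465 were galactose-induced for 36–48 hours, stained 1 hour at 4 °C with 10% biotinylated, detergent-solubilized Sf9 membrane reagent and enriched on streptavidin microbeads. FACS then separated cells into low and high (top ~1%) gates by anti-HA (expression) and streptavidin (reagent binding) fluorescence. Genes were colony-PCR amplified, MiSeq 2 × 250 sequenced and CDR-length filtered. A clone's polyreactivity label is that of its gate of origin.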

| Sequence | polyreactivity (PSR sort gate) |
| --- | --- |
| QVQLVESGGGLVQAGGSLRLSCASSGSIFYNNAMGWYRQAPGKERELVAAIRSTGTRTYYSDSVKGRFTISRDTAKNTVYLQMNSLKPEDTAVYYCAVGDYGLWSYDYWGQGTQVTVSA | low polyreactivity |
| QVQLVESGGGLVQAGGSLRLSCAASGRTFFSYTMGWYRQAPGKEREFVAAITTSGGYTHYADSVKGRFTISRDNAKNTVYLQMNSLIPEDTAVYYCAAVGRYPYKGYNYWGQGTQVTVSS | high polyreactivity |
| QVQLQESGGGLVQAGGSLRLSCAASGTISYAPHMGWYRHAPGKERELDAGITIGGTTYYADSVKGRFTISRDYAKNTVDLQMNRLSPGDTAVYYCAAHSEQYTPFYYWGQGTQVTVSS | low polyreactivity |
| QEQLQESRGGLVQAGGSLRMTCAASGYNYLAHTIGWYRQAPGKELEFVASIALGSSTYYTDSVKGSFTISRDNAKTTVYLQKNSQKPEDTAVYYCAARVGASYAHDYWGQGTQVTVSS | low polyreactivity |
| QVQLVESGGGLVQAGGSLRLSCAASGFTFGGYAMGWYRQAPGKERELVAAISSGGSTYYADSVKGRFTISRDNAKNTVYLQMNSLKPEDTAVYYCATDLRRYSYRGGHYYWGQGTQVTVSS | high polyreactivity |
| QVQLVESVGGLVQAGGTHRLSCSASGSTFFYYAMGWYRQAPGKERELVAAISSSGGRTYYADSVKGRFTISRDTAKNTVYLQMNSLKPEDTAVYYCAARDYRQSRYEYWGQGTEVTVSS | high polyreactivity |
| QVQLVESGGGLVQAGGSLRLSCAASGRIFPGYAMGWYRPAPGKERELVAAISKSGVSTYYADSVKGRFTISCDNAKNTVYLQMNSLKPEDTAVYYCAAVSYSYFSRGYRTFQLAYWGQGTQVTVSS | high polyreactivity |
| QVQLVESGGGLVQAGGSLRLSCAASGRIFGYNTMGWYRQAPGNERELVATITGAGSTNYADSVKGLFTISRDNAKNTVYLQMNSLKPEDTAVYYCAASVRWPRVSQRARYGYYYWGQGTQVTVSS | high polyreactivity |
| QVQLVESGGGLVQAGGSLRLSCDASGNIFSWNTMGWYRKAPGKEWELVAAITFRVTRTFYADSVKGRFTISRDNAKNTVYFLMNSLNPEDTAVYYCAARYYYSYSLGYDYWGQGTQVTVSS | high polyreactivity |
| QEQLQESGGGLVQAGGSLRLSCAASGSIYDDTYMARYRQAPGKERELVATIDSGSTTNYADSVKGRITISRDNAKNTVYLQMNSLKPEDSAVYYCAAADSHIDYFDYWGQGTQVTVSS | low polyreactivity |
| QVQLVESGGGLVQAGGSLRLSCAASGRTFYDYAMGWYRQAPGKERELVAAITYSGGSTFYADSVKGRFTISRDNAKNTVYLQMNSLKPEDTAVYYCAAEVLLLVGAAEYDYWGQGTQVTVSS | low polyreactivity |
| QVQLVESGGGLVQAGGSLRLSCAASGRIFVYYAMGWYRPAPWKERELVAVITSGGITYYADSVKGRFTISRDNAKNTVYLQMNSLKPEDTAVYYCAARGHQYDPGSSGKKYYYWGQGTQVTVSS | high polyreactivity |
| QVQLVESGGGLVQAGGSLRLSCAASGSTFGDNTMGWYRQAPGKERELVASISKSGGSTYYADSVKGRFTISRDNAKNTVYLQMNSLKPEDTAVYYCNRVTHYIRFDYWGQGTQVTVSS | low polyreactivity |
| QVQLVESGGGLVQAGGSLRLSCAASGSIFIPYAMGWYRQAPGKERELVAAISGSGGSTYYADSVKGRFTISRDNAKNTVYLQMNSLKPEDTAVYYCNAVYRRSKYYFSQGYDYWGQGTQVTVSS | high polyreactivity |
| QVQLVESGGGLVQAGGSLRLSCAASGSIFYPYAMGWYRQAPGKERELVAAITTGGGSTYADSVKGRFTISRDNAKNTVYLQMNSLKPEDTAVYYCNTDEYDIGSVYTLWEYDYWGQGTQVTVSS | low polyreactivity |
| QVQLVESGGGLVQAGGSLRISCAASGRIFRVYAMGWYRQAPGKERELVAAISYSGGRTFYADSVKGRFTNSRDNAKNTVYLQMNSLKPEDTAVYYCAATSYSTQALPPFDYWGQGTQVTVSS | low polyreactivity |
| QVQLVESGGGLVQAGGSLRLSCAASSIFRTYAMGWYRQAPGKERELVAAITWSGASTNYADSVKGRFTISRDNAKNTVYLQMNSLKPEDTAVYYCNADWRYYPSFKYYYWGQGTQVTVSS | high polyreactivity |
| QVQLVESGGGLVQAGGRLRLSCAASGGTFSKNAIGWYRQAPGKEREFVAAISSTGGDTTYYADSVKGRFTISRDNAKNTVYLQMNSVKPEDTAFYYCNSDYIFWPWYDYWGQGTQVTVSS | low polyreactivity |
| QVQLVESGGGLFQAGGSLRLSCAASGRIFAYNTMGWYRQAPAKERELVAVITSGGSTNYADSVKGRFTISRDNAKNTVYLQLNSLKAEDTAVYYCAKRPYGRSGGSRYDYWGQGTQVTVSS | high polyreactivity |
| QVQLVESGGGLVQAGGSLRLSCAASGFTFSFYAMGWYRQAPGKERELVAGISKRGGSTYYADSVKGRFTISRDNAKKTVFLQMNSLKPEDTAVYYCARSYYTNGNALKRDYWGQGTQVTVSS | high polyreactivity |
| QVQLVESGGGLVQAGGSLRLSCDASGRIFYYYGMGWYRQAPGKERELVAAISNGGRTYYADSVKGRFTISRDNAKNTVYLQMNSLKPEDTAVYYCAALTRGRGGYDYWGQGTQVTVSS | high polyreactivity |
| QDQLVESGGGLVQAGGSLRLSCAASGFTFSYYTMGWYRHAPGKERELVAAISSTGVSTYYADSVKGRFTISRDNAKNTVYLQMNSLKPEDTAVYYCAADYYGVYEYYYWGQGTQVTVSS | high polyreactivity |

| Sequence | polyreactivity (PSR sort gate) |
| --- | --- |
| QVQLVESGGGLVQAGGSLRLSCAASGGTFAYYTMGWYRQAPGKERELVAAISSGGRTNYADSVKGRFTISRDNAKNTVYLQMNSLKPEDTAVYYCAAESPLVYYSYPAYYKYYEYEYWGQGTQVTVSS | low polyreactivity |
| QVQLVESGGGLVQARGSLRLSCAASGSTFQYTMGCYRQAPRTERELVAAITSTGGSTYYADSVKGRFTISRDNAKNTVYLQRNSLKAEDTAVYYWNADYFGGGDYWGQGTQVTVSS | low polyreactivity |
| QVQLVESGGGLVQAGGSLRLSCAASGRIIYRYAMGWYRQAPGKERELVAAISYRGGSTYYADSVKGRFTISRDNAKNTVYLQMNSLKPEDTAVYYCAADRRYYDWRYGGFDYWGQGTQVTVSS | high polyreactivity |
| QVQLVESGGRLVQAGGSLRLSGADSGSIFSSYAMGWNRPAPGKERELVAAISSSGDSTYADSEKGRFTISRDNAKNSVDLQMNSLKPEDTAVYYCAVGGAGSDDYWGQGTQVTVSS | low polyreactivity |
| QVQLVESGGGLVQAGGSLRLSCAASGSIFGLYAMGWYRQAPGKERELVAAITDSTGSTSYADSVKGRFTISRDNAKNTVYLQMNSLKPEDTAVYYCAAGQGRWRHGFDYWGQGTQVTVSS | low polyreactivity |
| QVQLVETGGGLVQAGGSLRLSCAASGFIFRGNAMGWYRQAPGKERELVAAISKRGGSTNYADSVKGRFTISRDNAKNTVYLQMNSLKPEDTAVYYCNAEGIYRQPRGYVYRYDYWGQGTQVTVSS | high polyreactivity |
| QVQLVESGGGLVQAGGSLRLSCAASGITFYYNTMGWYRQAPGKERELVAAISSRSGSTYYADSVKGRFTISRDKAKNNVSLQMNCLKPEDTAVYYCAARRAAKYYWGQGTQVTVSS | high polyreactivity |
| QDQHVESGGGLVQAGGSLRLSCDASGFIFNQNARGWYRQAPGKERELVAAISQRGGRTYYADSVKGRFTISRDNAKNTVYLQMNSLKPEDTAVYYCAAYGPFRFDVDTYDYWGQGTQVTVSS | low polyreactivity |
| QEQLQESGGGLVQAGGSLRLSCAASGYISSWYPMGWYRQAPGKEREFVATIAPGATTYYADSVKGRFTISRDYAKNTVYLQMNSLTPEDTAVYYCAAGPENNDFYSYWGQGTQVTVSS | low polyreactivity |
| QVQLVESGGGLVQAGGSLRLSCAASGSIFKYYAMGWYRQAPGKERELVAAISRSGTSTYYADSVKGRFTISRDNAKNTVYLQMNSLKPEDTAVYYCNAVGISQFAKYGWRYDYWGQGTQVTVSS | high polyreactivity |
| QVQLVESGGGLVQAGGSLRLSCAASGRILYIYAMGWYRQAPGKERELVAAIRSSGGSTYYADSVKGRFTISRDNAKNSVYLQMNSLKPDDTAVYYCAATSRVSKSHLYGYWGQGTQVTVSS | high polyreactivity |
| QVQLVESGGGLVQAGGSLRLSCAASGSIFSKNAMGWYRQAPGKERELVAAISWSGDRTYYADSVKGRFTISRDNAKNTVYLQMNSLKPEDTAVYYCAADYTVKYGYWGQGTQVTVSS | high polyreactivity |
| QVQLVESGGGLVQAGGSLRLSCAASGITFWFYSKGWYRQSPGNERELVAAISRSGSTNYADSVKGRFTISRDNAKNTVYLQMNSLKPEDTAVYYCAASTYKYKLLYYQYDYWGQGTQVTVSS | high polyreactivity |
| QVQLVESGGGLVQAGGSLRLSCAASGSIFPYYTMGWYRQAPGKERELVAAINYSGASTYYADSVKGRFTISRDNAKNTVYLQMNSLKPEDTAVYYCAADYPPLYRKYVYWGQGTQVTVSS | low polyreactivity |
| QVQLVESGGGLVQAGGSLRLSCDASGRIFAYYTMGWNRQAPGKERELVAAINQSGGSTYYADSVKGRITISRDNAKNTDYLQMNILKPEDTAVYYCAAKRYSMYARRYAYVYWGQVTQVTVSS | low polyreactivity |
| QVQLVESGGGLDQAGGSLSLSCAASGLIINSNTMGWYRQAPGKERELVAVINWRGGRTYYADSVKGRFTISRDNAKNTVDLQMNSLKPEDTAVYYCAAYLHGARYGYWGQGTQVTVSS | high polyreactivity |
| QVQLVESGGGLVQAGGSLRLSCAASGSIFGIYAMGWYRQAPGKERELVAAIDSSGTSTYYADSVKGRFTISRDNAKNTVYLQMNSLKPEDTAVYYCAAYHRISKNNYLGQGTQVTVSS | low polyreactivity |
| QVQLVESGGGLVQAGGSLRLSCAASGRILYLYTMGWYRQAPGKERELVAAISRGGSTYYADSVKGRFTISRDNAKNTVYLQMNSLKPEDTAVYYCSADARGYQFNYWGQGTLVTVSS | high polyreactivity |
| QVQLVESGGGLVQAGGSLRLSCAASGRIFTINAMGWYRQAPGKERELVASIRSTGGSTYYADSVKGRFTISRDNAKNTVYLQMNSLKPEDTAVYYCAADGGVAWGYGYWGQGTQVTVSS | low polyreactivity |
| QVQIVESGGGLVQAGGSLRLSCAASGSTFPWYVMGWYRQAPGKERELVAAISWSGGRTYYADSVKGRFTISRDNAKNTVYLQMTRLKPEDRAVYYCAAEFKLVSHTYYYWGQGTQVTVSS | low polyreactivity |
| QVQLVQSGGGLVQAGGSLRLSCAASGSTFYVYAMGWYRQAPGKEREFVAAISRSGGRTYYAVSVKGRFTISRDNAKNTVYLQMNSLKPEDTAVYYCNARDSLRYYTYYFEDYRVGYDYWGQGTQVTVSS | high polyreactivity |
